The target of test [1] is human IL-18BP-His (human) (UniProt O95998). Nature of the test: AlphaLISA detection of free IL-18BP.
Test [2] shares this target. Put plainly: AlphaLISA detection of free IL-18BP after incubation with the IL-18 analyte.
Test [3] has the same target. Nature of the test: AlphaLISA for free IL-18BP; test item titrated (x axis) and pre-incubated with human IL-18BP-His, unbound IL-18BP detected.
Test [4] deals with recombinant Human Fc gamma RI/CD64 Protein (R&D systems, 1257-FC-050, CF) (human) (UniProt P12314). Nature of the test: ELISA; antibody coated, Fc gamma receptor titrated.
In test [5] the target is recombinant Human Fc gamma RIIA/CD32a (H167) Protein (R&D systems, 9595-CD-050, CF) (human) (UniProt P12318). Put plainly: ELISA; antibody coated, Fc gamma receptor titrated.
The target of test [6] is recombinant Human Fc gamma RIIB/CD32b Avi-tag Protein (R&D systems, AVI1875-050, CF) (human) (UniProt P31994). Nature of the test: ELISA; antibody coated, Fc gamma receptor titrated.
The target of test [7] is recombinant Human Fc gamma RIIIA/CD16a Protein (R&D systems, 4325-FC-050; CF) (human) (UniProt P08637). Put plainly: ELISA; antibody coated, Fc gamma receptor titrated.
Test [8] addresses recombinant biotinylated human FcRn (human) (UniProt P55899). Nature of the test: AlphaLISA competition at pH 6; competitor: human IgG on acceptor beads.
Test [9] shares this target. Put plainly: AlphaLISA competition at pH 6; test molecule titrated (x axis) against human IgG-conjugated acceptor beads for biotinylated human FcRn on streptavidin donor beads.

The values that follow come from patent US20250186597A1, “TARGETED IMMUNE ACTIVATION WITH IL-18 IMMUNOCYTOKINES” (BRIGHT PEAK THERAPEUTICS AG, priority 2023, published 2025).

Chain of human IL-18BP-His (human) (O95998 31-194): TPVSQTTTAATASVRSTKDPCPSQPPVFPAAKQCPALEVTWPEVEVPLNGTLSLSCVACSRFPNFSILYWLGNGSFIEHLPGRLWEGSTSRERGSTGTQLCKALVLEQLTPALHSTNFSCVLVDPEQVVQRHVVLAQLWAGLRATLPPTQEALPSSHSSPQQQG
Chain of recombinant biotinylated human FcRn (human) (P55899 24-297 limits assumed, chain 1 of 2): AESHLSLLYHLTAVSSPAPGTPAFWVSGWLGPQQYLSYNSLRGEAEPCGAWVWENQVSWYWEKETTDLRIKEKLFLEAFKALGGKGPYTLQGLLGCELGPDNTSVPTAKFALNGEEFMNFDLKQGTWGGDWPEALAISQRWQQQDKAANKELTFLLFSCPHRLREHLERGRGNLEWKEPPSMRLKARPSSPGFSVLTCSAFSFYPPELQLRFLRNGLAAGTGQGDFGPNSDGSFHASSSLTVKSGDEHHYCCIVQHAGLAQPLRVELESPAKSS
Chain of recombinant biotinylated human FcRn (human) (chain, as listed by the source limits assumed, chain 2 of 2): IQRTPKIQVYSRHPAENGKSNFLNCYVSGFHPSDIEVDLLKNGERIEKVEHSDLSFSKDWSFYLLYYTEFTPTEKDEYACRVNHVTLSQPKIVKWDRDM
Chain of recombinant Human Fc gamma RIIIA/CD16a Protein (R&D systems, 4325-FC-050; CF) (human) (P08637 17-208 limits assumed): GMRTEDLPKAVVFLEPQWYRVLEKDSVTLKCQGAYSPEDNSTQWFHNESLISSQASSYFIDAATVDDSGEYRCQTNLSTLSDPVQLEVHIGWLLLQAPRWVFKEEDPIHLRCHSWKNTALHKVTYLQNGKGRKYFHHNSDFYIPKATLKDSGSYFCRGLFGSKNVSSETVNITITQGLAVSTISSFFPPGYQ
Chain of recombinant Human Fc gamma RIIB/CD32b Avi-tag Protein (R&D systems, AVI1875-050, CF) (human) (P31994 46-217 limits assumed): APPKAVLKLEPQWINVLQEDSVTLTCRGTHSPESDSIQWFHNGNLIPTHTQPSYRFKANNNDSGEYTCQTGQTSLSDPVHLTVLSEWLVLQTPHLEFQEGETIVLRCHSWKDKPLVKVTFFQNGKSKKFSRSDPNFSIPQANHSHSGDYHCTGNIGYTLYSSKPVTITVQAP
Chain of recombinant Human Fc gamma RIIA/CD32a (H167) Protein (R&D systems, 9595-CD-050, CF) (human) (P12318 36-218 limits assumed): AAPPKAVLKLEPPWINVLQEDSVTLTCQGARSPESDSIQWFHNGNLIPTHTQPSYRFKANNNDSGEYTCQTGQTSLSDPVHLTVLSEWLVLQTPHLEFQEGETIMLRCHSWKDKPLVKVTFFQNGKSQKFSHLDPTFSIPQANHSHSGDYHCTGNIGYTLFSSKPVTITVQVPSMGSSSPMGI
Chain of recombinant Human Fc gamma RI/CD64 Protein (R&D systems, 1257-FC-050, CF) (human) (P12314 16-288 limits assumed): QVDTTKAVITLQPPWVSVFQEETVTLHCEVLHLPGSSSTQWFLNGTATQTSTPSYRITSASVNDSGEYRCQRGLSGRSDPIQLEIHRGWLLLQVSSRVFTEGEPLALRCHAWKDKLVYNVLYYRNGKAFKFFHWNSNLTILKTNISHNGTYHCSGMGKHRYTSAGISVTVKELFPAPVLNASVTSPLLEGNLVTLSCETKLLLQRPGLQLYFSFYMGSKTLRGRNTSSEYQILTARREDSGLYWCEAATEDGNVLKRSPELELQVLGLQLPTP

“native IL-18 wild-type (SEQ ID NO: 1) (from UniProt Q14116 37-193) (ligand)”: the values for the Kd in test [1] and in test [2] were 0.67 nM and 0.411 nM, respectively. This substance also registered an IC50 (read off the curve) in [3] of 0.4 nM.
In the case of LZM-009 (antibody), the Kd in [4] turned out to be 0.315 nM; in test [5], 1350 nM; in test [6], 2630 nM; in test [7] it was 1710 nM; in test [8], 6 nM. Besides, in test [9], the IC50 (read off the curve) was determined as 5 nM.
